From PMC2913173 (Journal of molecular biology, 2009)
eCPX = enhanced circularly permuted OmpX display protein

Target: Bcl-xL (Homo sapiens, UniProt Q07817, DEL46-85)
Experiment: Cell surface display equilibrium binding assay with flow cytometry
Settings: cells displaying Bak–eCPX fusions, biotinylated Bcl-xL and SAPE

| Molecule | Binding to Bcl-xL in words (fluorescence of cell population) |
| --- | --- |
| Bak(24–117): construct containing amino acids 24–117 of Bak (helices α1 to α4), eCPX fusion (protein, left off: eCPX (enhanced circularly permuted OmpX display protein), C-terminal, kept) EEQVAQDTEEVFRSYVFYRHQQEQEAEGVAAPADPEMVTLPLQPSSTMGQVGRQLAIIGDDINRRYDSEFQTMLQHLQPTAENAYEYFTKIATS | essentially no binding to Bcl-xL |
| Bak(24–89): eCPX fusion protein comprising helices α1, α2, and α3 of Bak (protein) EEQVAQDTEEVFRSYVFYRHQQEQEAEGVAAPADPEMVTLPLQPSSTMGQVGRQLAIIGDDINRRY-eCPX | fluorescence only slightly above background levels |
